Residue numbers refer to the chain shown, from its start.
T1: Ara h 6 (Arachis hypogaea allergen 6) (Arachis hypogaea, UniProt Q647G9 22-145)
T1 construct: Peanut allergen; also called Ara h 6.0101; nAra h 6
T1 sequence: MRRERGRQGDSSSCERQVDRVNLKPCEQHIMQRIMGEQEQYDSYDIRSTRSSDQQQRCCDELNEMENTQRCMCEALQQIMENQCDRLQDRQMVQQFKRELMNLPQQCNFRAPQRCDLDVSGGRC

T2: Ara h 2 (Arachis hypogaea allergen 2) (Arachis hypogaea, UniProt Q6PSU2 22-172)
T2 construct: Peanut allergen; also called nAra h 2; natural Ara h 2
T2 sequence: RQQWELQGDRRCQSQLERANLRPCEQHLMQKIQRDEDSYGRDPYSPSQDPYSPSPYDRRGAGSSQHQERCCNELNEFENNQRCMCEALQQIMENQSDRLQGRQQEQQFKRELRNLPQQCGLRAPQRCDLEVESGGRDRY

T3: Ara h 3 (Arachis hypogaea allergen 3) (Arachis hypogaea)
T3 construct: Peanut allergen; also called Ara h 3.0101; nAra h 3
T3 chain: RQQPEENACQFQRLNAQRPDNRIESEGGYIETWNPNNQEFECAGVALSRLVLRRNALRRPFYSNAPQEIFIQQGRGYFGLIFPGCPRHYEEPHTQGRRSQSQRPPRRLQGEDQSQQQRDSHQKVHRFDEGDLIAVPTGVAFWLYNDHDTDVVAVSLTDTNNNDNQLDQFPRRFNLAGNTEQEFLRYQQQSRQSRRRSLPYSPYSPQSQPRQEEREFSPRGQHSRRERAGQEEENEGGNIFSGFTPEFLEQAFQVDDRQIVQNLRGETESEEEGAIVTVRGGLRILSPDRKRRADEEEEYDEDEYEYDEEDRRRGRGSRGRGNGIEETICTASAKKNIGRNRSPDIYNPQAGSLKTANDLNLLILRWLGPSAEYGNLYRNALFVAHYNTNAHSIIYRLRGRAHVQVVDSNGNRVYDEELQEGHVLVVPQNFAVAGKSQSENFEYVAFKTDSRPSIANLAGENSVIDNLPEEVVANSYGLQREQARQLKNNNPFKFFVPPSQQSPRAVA

B1: 15E3_rb_IGHV1S8_J5+IGLV2S2_JL5 (antibody, V domains shown)
VH: QKQLVESGGGLDQPAGSLKLSCKDSGFTLSTFYMTWVHQAPGKGLEWIANIKQDGSEKDYLDSVRGRFTISSDNTQNMVDLEMNSLTAADMAIYFCARNGLQDSYSGDFFDHWGQGTLVTVSS
VL: QPALTQPSSVSGALGGSVTITCSGTGSNIGHNYVSWYQQLPGSVPKLLMFDNTKRPSGIPERFSGSKSGTTASLTISGLQPEDEADYYCATWDADLSAVLFGGGTKLTVL
B2: 15E3 (antibody, V domains shown)
VH: EVQLVESGGALVQPGGSLRLSCAASGFKFSTFYMTWIRQAPGKGLEWVANIKQDGSEKDYLDSVRGRFNISRDNAKSVLYLQMNTLSADDTGVYYCTRNGLQDSYSGDFFDHWGQGILVTVSS
VL: QSVLTQPPSISAAPGQKVTISCSGTGSNIGHNYVSWYQQLPRTAPRLLIFDNTKRPSGIPDRFSGSKSGSSATLGITGLQTGDEAHYFCATWDADLSAVLFGGGTKLTVL
notes: Fully human monoclonal antibody, wild-type variable regions; also called MY006-15E3; 15E3-human IgG1
B3: 2F8 (antibody, V domains shown)
VH: EVQLVESGGGLVKPGGSLRLSCAASGFIFSDYNMNWVRQAPGKGLEWVSSITRSSRTIYYADSVKGRFTISRDNAKNSLHLQMNSLRDADTAVYYCAREDFDVSTGPYYMDVWGNGTTVIVSS
VL: EIVLTQSPGTLSLSPGERATLSCRASQSVSNMFLVWYQQKPGQAPRLLMYGASTRATDIPDRFSGSGSGTDFTLTISRLEPEDFAVYYCQQNGNSPYTFGQGTKLEIK
notes: Fully human monoclonal antibody, wild-type variable regions; tested as IgG; also called MY006-2F8
B4: MY006-2F8 Fab Hg Lf (Fab, V domains shown)
VH: B3 VH with K13Q, H80Y, A89E, N115K, I120T
VL: B3 VL with M49I, D58G
notes: Germlined variant, IgG1-Fab format; also called 2F8: Hg/Lf
B5: 17H9 (antibody, V domains shown)
VH: QVQLEEYGGGVVQPGRSLRLSCVASGSTLGTYGMHWVRQAPGKGLEWVAIISPDGGHQDYADPVRGRFTVSRDNSKNTLYLQMDNLRVEDTAVYYCATTLCARTDCTWVRSDSWGQGTLVTVSS
VL: ANVLTQSPGTLSLSPGERATLSCRASQRVSGDYLAWYQQKRGQAPRLLIYGASSRATGIPDRFSGSGSGTDFTLTISRLEPEDFAVYYCQHYNGPPVTFGQGTKLEIK
notes: Fully human monoclonal antibody, wild-type variable regions; tested as IgG (detected with anti-human IgG); also called MY006-17H9
B6: 7G6_rb_IGHV1S47_J3+IGKV1S19_JK1-2 (antibody, V domains shown)
VH: QEQLVESGGGLVQPEGSLTLTCKASGFDFSDYTMHWVRQAPGKGPEWIAAISYGGTNKYYADSVKGRFTISRSTSLNTVTLQMTSLTAVDTATYFCARDSGYRSLLHWGQGTLVTVSS
VL: AAVLTQTPSPVSAAVGGTVTIKCRSSQSLVHRNGYNYLDWYQQKPGQPPKLLIYMASKRASGVPDRFSGSGSGTQFTLTISGVQCDDAATYYCMQALQTWTFGGGTKVVVK
B7: 7G6_rb_IGHV1S47_J3+K66N_IGKV1S19_JK1-2 (antibody, V domains shown)
VH: B6 VH
VL: B6 VL with K58N
notes: Fully rabbit antibody: 7G6 CDRs grafted onto rabbit variable frameworks
B8: 7G6_rb_IGHV1S47_J3+IGKV1S19_JK1-3 (antibody, V domains shown)
VH: B6 VH
VL: B6 VL with F102L, G104P, V108L, V109E, V110I
B9: 7G6 (antibody, V domains shown)
VH: QVQLVESGGGVVQPGRSLRLSCAASGIAFNDYTMHWVRRSPDKGLEWVAAISYGGTNKYYADSVKGRFTISRDSSKNTLFLQMDSLRVEDTAVYYCARDSGYRSLLHWGQGTLVTVSS
VL: EIVLTQSPLSLPVTPGEPASISCRSSQSLVHRNGYNYLDWYLQKPGQSPQLLIYMASKRASGVPDRFSGSGSGTEFTLKISRVEAEDVGIYYCMQALQTWTFGQGTKVEVN
notes: Fully human monoclonal antibody, wild-type variable regions; tested as IgG; also called MY006-7G6

Legend:
[1] = target: T1, Ara h 6 (Arachis hypogaea allergen 6); test: ELISA, purified rabbit antibody
[2] = target: T1, Ara h 6 (Arachis hypogaea allergen 6); test: ELISA, antibody titrated on coated Ara h 6
Experimental: (§1) Monoclonal antibodies 2F8, 7G6, 17H9 and 15E3 were tested for their specificity against the major peanut allergens Ara h 1, 2, 3, and 6 by ELISA (enzyme linked immunosorbent assay). Briefly, ELISA plates were coated with respective Ara h proteins (Arah1: 0.5 ug/ml, Arah2: 0.01 ug/ml, Arah3: 0.1 ug/ml, Arah6: 0.05 ug/ml) overnight at 4° C. Afterwards, plates were blocked with BSA (2% in PBS) for 1 hour at room temperature. Antibody titration series starting from 3 ug/ml was prepared, added to the single ELISA plate wells and incubated for 2 h at room temperature. The read-out was performed by adding anti-hu-IgG-HRP (anti-human-IgG horseradish peroxidase; Jackson ImmunoResearch, West Grove, PA, USA) for 1 h at room temperature. Tetramethylbenzidine substrate solution (TMB, Sigma-Aldrich Chemie GmbH, Buchs, Switzerland) was added, then after 5 minutes of hydrolysis time, the reaction was stopped by the addition of 1 M H₂SO₄ and the absorbances were read at 450 nm.

[3] = target: T2, Ara h 2 (Arachis hypogaea allergen 2); test: ELISA, antibody titrated on coated Ara h 2
Experimental: as §1

[4] = target: T1, Ara h 6 (Arachis hypogaea allergen 6); test: ELISA, Fab titration on coated Ara h 6
Experimental: Next, the effect of the engineered variable regions on antigen binding was tested. Briefly, ELISA plates were coated with respective Ara h proteins (Ara h 2:0.05 ug/ml, Ara h 6:0.1 ug/ml, Ara h 3 loop (2nd): 0.1 ug/ml) overnight at 4° C. Afterwards, plates were blocked with BSA (2% in PBS) for 1 hour at room temperature. Fab fragment titration series starting from 4 ug/ml was prepared, added to the single ELISA plate wells and incubated for 2 h at room temperature. The read-out was performed by adding anti-hu-kappa/lambda-HRP (anti-kappa Invitrogen (A18853) and anti-lambda abcam (ab99811) for 1 h at room temperature. Tetramethylbenzidine substrate solution (TMB, Sigma-Aldrich Chemie GmbH, Buchs, Switzerland) was added, then after 5 minutes of hydrolysis time, the reaction was stopped by the addition of 1 M H₂SO₄ and the absorbances were read at 450 nm.

[5] = target: T3, Ara h 3 (Arachis hypogaea allergen 3); test: ELISA, antibody titrated on coated Ara h 3
Experimental: as §1

Row | Binder | binding result [1] | EC50 [2] | EC50 [3] | further results
1 | B1 | binds | – | – | –
2 | B2 | – | 1.74 ng/mL | 3.78 ng/mL | –
3 | B3 | – | 2.46 ng/mL | 3.31 ng/mL | –
4 | B4 | – | – | – | binding result [4]: binds
5 | B5 | – | – | 2.2 ng/mL | EC50 [5]: 7.38 ng/mL
6 | B6 | binds | – | – | –
7 | B7 | binds | – | – | –
8 | B8 | binds | – | – | –
9 | B9 | – | 1 ng/mL | 0.629 ng/mL | –
